This experiment deals with T1, recombinant human SEMA3C Fc chimera, Q99985.
T1 chain: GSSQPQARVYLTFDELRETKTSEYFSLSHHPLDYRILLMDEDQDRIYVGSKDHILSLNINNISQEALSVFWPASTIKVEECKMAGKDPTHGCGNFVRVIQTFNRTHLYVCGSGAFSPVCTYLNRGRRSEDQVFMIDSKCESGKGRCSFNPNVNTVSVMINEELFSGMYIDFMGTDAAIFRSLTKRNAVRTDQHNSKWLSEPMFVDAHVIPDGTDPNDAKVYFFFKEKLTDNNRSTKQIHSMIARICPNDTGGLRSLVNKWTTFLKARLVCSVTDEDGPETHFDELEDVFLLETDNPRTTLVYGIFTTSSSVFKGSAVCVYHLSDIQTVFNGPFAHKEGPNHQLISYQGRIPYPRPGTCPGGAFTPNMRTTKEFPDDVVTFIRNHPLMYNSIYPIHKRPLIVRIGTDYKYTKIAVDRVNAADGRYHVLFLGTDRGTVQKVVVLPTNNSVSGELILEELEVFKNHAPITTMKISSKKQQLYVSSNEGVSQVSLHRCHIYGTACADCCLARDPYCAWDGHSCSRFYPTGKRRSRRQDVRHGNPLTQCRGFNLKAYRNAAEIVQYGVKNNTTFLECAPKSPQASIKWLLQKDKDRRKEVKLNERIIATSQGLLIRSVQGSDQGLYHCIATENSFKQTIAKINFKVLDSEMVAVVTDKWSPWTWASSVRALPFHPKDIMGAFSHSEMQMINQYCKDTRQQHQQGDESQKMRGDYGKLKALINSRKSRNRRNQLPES
Description: Saturation receptor-ligand binding assay. As to conditions: chain shown with the change, SEMA3C 0-10 nM, read-out O.D. 450 nm.

The mark [1] stands for this setting: NRP2 co-expressed with WT PLXNA1, parent: 0.63 nM.
[2] abbreviates: NRP2 co-expressed with WT PLXNA1, parent: 0.65.
The mark [3] stands for this setting: NRP2 co-expressed with WT PLXNA2, parent: 0.89 nM.
Setting [4] is: NRP2 co-expressed with WT PLXNA2, parent: 0.60.
Setting [5] is: NRP2 co-expressed with WT PLXNA3, parent: 0.93 nM.
Setting [6] is: NRP2 co-expressed with WT PLXNA3, parent: 0.54.
Setting [7] is: NRP2 co-expressed with WT PLXNA4, parent: 1.03 nM.
Setting [8] is: NRP2 co-expressed with WT PLXNA4, parent: 0.65.
Setting [9] is: cells expressing NRP2 alone (no PLXNA co-expressed), parent: 0.81 nM.
The mark [10] stands for this setting: cells expressing NRP2 alone (no PLXNA co-expressed), parent: 0.89.

Numbering of substitutions follows the chain as printed. Names and notes keep the numbering of the source.

The Kd is the equilibrium constant for the complex coming apart.

B1: human Neuropilin 2, wild type, O60462 A506V (protein)
chain: RGQPDPPCGGRLNSKDAGYITSPGYPQDYPSHQNCEWIVYAPEPNQKIVLNFNPHFEIEKHDCKYDFIEIRDGDSESADLLGKHCGNIAPPTIISSGSMLYIKFTSDYARQGAGFSLRYEIFKTGSEDCSKNFTSPNGTIESPGFPEKYPHNLDCTFTILAKPKMEIILQFLIFDLEHDPLQVGEGDCKYDWLDIWDGIPHVGPLIGKYCGTKTPSELRSSTGILSLTFHTDMAVAKDGFSARYYLVHQEPLENFQCNVPLGMESGRIANEQISASSTYSDGRWTPQQSRLHGDDNGWTPNLDSNKEYLQVDLRFLTMLTAIATQGAISRETQNGYYVKSYKLEVSTNGEDWMVYRHGKNHKVFQANNDATEVVLNKLHAPLLTRFVRIRPQTWHSGIALRLELFGCRVTDAPCSNMLGMLSGLIADSQISASSTQEYLWSPSAARLVSSRSGWFPRIPQAQPGEEWLQVDLGTPKTVKGVIIQGVRGGDSITAVEARAFVRKFKVSYSLNGKDWEYIQDPRTQQPKLFEGNMHYDTPDIRRFDPIPAQYVRVYPERWSPAGIGMRLEVLGCDWTDSKPTVETLGPTVKSEETTTPYPTEEEATECGENCSFEDDKDLQLPSGFNCNFDFLEEPCGWMYDHAKWLRTTWASSSSPNDRTFPDDRNFLRLQSDSQREGQYARLISPPVHLPRSPVCMEFQYQATGGRGVALQVVREASQESKLLWVIREDQGGEWKHGRIILPSYDMEYQIVFEGVIGKGRSGEIAIDDIRISTDVPLENCMEPISAFAGENFKVDIPEIHEREGYEDEIDDEYEVDWSNSSSATSGSGAPSTDKEKSWLYTLDPILITIIAMSSLGVLLGATCAGLLLYCTCSYSGLSSRSCTTLENYNFELYDGLKHKVKMNHQKCCSEA
On to B1, for which the dissociation constant Kd runs as follows: under setting [1], 0.67 nM; under setting [3], 1 nM; under setting [5], 1.12 nM; under setting [7], 1.25 nM; under setting [9], 0.73 nM. Moreover, the other: Bmax by setting is: under setting [2], 0.55 O.D. 450 nm; under setting [4], 0.52 O.D. 450 nm; under setting [6], 0.42 O.D. 450 nm; under setting [8], 0.55 O.D. 450 nm; under setting [10], 0.84 O.D. 450 nm.

B2: human Neuropilin 2, wild type, O60462 V573L (protein)
chain: B1 chain with V486A, V553L
On to B2, for which the Kd is, setting by setting: under setting [1], 0.68 nM; under setting [3], 1.01 nM; under setting [5], 1.18 nM; under setting [7], 1.07 nM; under setting [9], 0.83 nM. Moreover, the other: Bmax is, setting by setting: under setting [2], 0.66 O.D. 450 nm; under setting [4], 0.67 O.D. 450 nm; under setting [6], 0.52 O.D. 450 nm; under setting [8], 0.59 O.D. 450 nm; under setting [10], 0.93 O.D. 450 nm.

Values taken from article PMC6370916.
